Experimental data reported in patent publication US5456909A, “Glycoform fractions of recombinant soluble complement receptor 1 (sCR1) having extended half-lives in vivo” (T Cell Sciences, Inc., priority 1992, dated 1995).

Legend:
[1] = tested on: reversed passive Arthus reaction; details: in vivo; cited from earlier work
[2] = tested on: post-ischemic myocardial inflammation and necrosis; details: in vivo; cited from earlier work
[3] = in vivo; cited from earlier work
[4] = Pharmacokinetic studies 1, 4, 5, 7, 9: iv clearance of 125I-labelled TP10HD preparations in rats; assay type: in vivo, Sprague-Dawley rats; details: 1 mg/kg
Method: In Studies 1, 2, 4, 5, 7 and 9, Iodination was carried out by the chloramine-T procedure. Sodium phosphate buffer, 0.5M, pH 7.6, 50 μl, was added to 1 mCi of Na-^125 I (New England Nuclear, Boston, Mass.) as supplied. The sample of TP10HD, typically 100 μg in 100 μl (Study 5=69 μg; Study 7=34 μg; Study 9=91 μg), was added followed by 50 μl of a 15 mg/ml solution of freshly prepared chloramine-T. The reaction mixture was vigorously shaken for 60 seconds. Sodium metabisulfite (50 μl, 15 mg/ml) and sodium iodide (100 μl, 10 mg/ml) were successively pipetted into the reaction vial. The reaction mixture was passed onto a PD10 column (Pharmacia Fine Chemicals, Piscataway, N.J.), pre-equilibrated with phosphate buffered saline, pH 7.2-7.4, containing 0.1% bovine serum albumin (Sigma Chemical Company, St. Louis, Mo.). Ten 0.5 ml fractions were collected and 2 μl aliquots were counted directly and after combining with 100 μl of a 0.1% bovine serum albumin solution and 1 ml of 20% trichloroacetic acid. After incubation at 0° C. for 1 hour, the acid-precipitable protein associated radioactivity was collected by centrifugation for 10 minutes at 1000×g and quantitated by scintillation counting. Fractions containing >90% of the total radioactivity in the acid precipitate were pooled for further use.
Study 1: Radioiodinated TP10HD-CX was mixed with purified unlabeled TP10HD-CX to yield a dosing solution suitable for administering a 1 mg/kg total TP10HD dose containing 16-25×10^6 cpm of radiolabeled TP10HD-CX.
Study 4: Radioiodinated TP10HD-CC was mixed with purified unlabeled TP10HD-CC to yield a dosing solution suitable for administering a 1 mg/kg or a 3 mg/kg total TP10HD dose containing ~20×10^6 cpm.
Study 5: Radioiodinated TP10HD-CCW was mixed with purified unlabeled TP10HD-CCW to yield a dosing solution suitable for administering a 1 mg/kg total TP10HD dose containing ~20×10^6 cpm.
Study 7: Radiolabeled TP10HD-CCS was mixed with purified unlabeled TP10HD-CCS to yield a dosing solution suitable for administering a 1 mg/kg total TP10HD dose containing ~20×10^6 cpm.
Study 9: Radioiodinated TP10HD-CXD was mixed with purified unlabeled TP10HD-CXD to yield a dosing solution suitable for administering a 1 mg/kg total TP10HD dose containing ~20~10^6 cpm.
In Studies 1, 4, 5, 7 and 9, test material was injected intravenously (iv) into four Sprague-Dawley rats (2 male, 2 female). Blood samples were obtained from the retroorbital plexus at 1, 3, 5, 10, 20, 30, 45, and 60 minutes post injection, and the radioactivity determined. Additional post infusion blood samples were taken at 2, 3, and 4 hours postinjection (STUDY 4) and at 120 minutes (STUDY 5). The plasma fraction of the remaining blood sample was retained for further analysis.
Plasma samples were analyzed for residual test material by measuring:
(1) total residual radioactivity;
(2) percentage of radiolabeled material precipitated with TCA;
(3) residual acid precipitable radioactivity in the presence of SDS; and
(4) material immunologically identifiable in an enzyme immunoassay as TP10HD.
Radioisotope data was quantitated as total cpm/ml blood or plasma and as the percentage of a theoretical time zero value. Pharmacokinetic half-life was calculated from the radiometric data.
In Study 9, removal of N-linked oligosaccharide chains was performed by n-glycanase digestion, performed according to manufacturer's instructions (Genzyme Corporation, Boston, Mass.). Typically, 58 μg TP10HD-CX was incubated with 10.5 units of n-glycanase for 18 hours, 37° C., in 0.2M sodium phosphate, pH 8.6 buffer.
Precipitation with trichloroacetic acid was performed as follows: Plasma (20 μl) was precipitated by sequential addition of 450μl of 0.13M Tris HCl, 4% SDS, 10% glycerol, pH 6.8 buffer, followed by 30 μl of fetal bovine serum and 500μl of 20% trichloroacetic acid. […]

[5] = Pharmacokinetic study 2: iv TP10HD-CX in rabbits, residual functional activity by hemolysis inhibition; assay type: in vivo, Dutch rabbits; details: for Peak (t = O) conc / Serum half-life / Total Clearance / Volume of Distribution: iv, 1 mg/kg
Method: Study 2: Radioiodinated TP10HD-CX, ~5% w/w, was mixed with purified TP10HD-CX to yield a dosing solution containing 1 mg/ml TP10HD-CX in 0.1M Hepes, 0.15M NaCl, pH 7.4 buffer.
In Study 2, test material was injected iv into two groups of five male Dutch rabbits (approximately 1 kg) at a dose of 1 mg/kg. Blood samples, 2 ml, were taken from an ear artery immediately pre-dosing and at 5, 10, 20, 45, 60, 120, and 180 minutes, and mixed with heparin (final concentration 25 μg/ml). Radioactivity was determined in an aliquot by scintillation counting, and the plasma, obtained by centrifugation at 2000×g for 5 minutes, was stored at -40° C.
Plasma samples were analyzed for residual test material by an in vitro functional assay, inhibition of hemolysis of antibody coated sheep red blood cells (SRBC) by human complement. Pharmacokinetic half-life was calculated from the titer of the residual functional activity.
Rabbit plasma samples were heated at 56° C. for 1 hour in the presence of methylamine (12.5 mM) in order to amidate thioester groups and to inactivate endogenous complement components C3 and C4. […] Test samples were then diluted 1:50 with 0.1 Hepes, 0.15M NaCl, pH 7.4 buffer and assayed.
(§1) SRBC presensitized with rabbit anti-SRBC antibody (Diamedix, Miami, Fla.) were mixed in a V-bottom microtiter wells (Costar, Cambridge, Mass.) with an appropriate dilution of the test plasma and an aliquot of diluted human serum as a complement source. After incubation, 37° C., 1 hour, the unlysed red cells were pelleted by centrifugation, the supernatant transferred to corresponding flat bottom microwells (Costar, Cambridge, Mass.), and absorbance at 415 nm measured. Inhibition of complement-mediated lysis of the antibody coated SRBC was measured as a reduction in the absorbance in the presence of test sample. Standard curves with known quantities of TP10HD can be used to calibrate the assay so that results can be expressed as mg/ml TP10HD remaining in the plasma versus time.

[6] = tested on: complement-mediated lysis of antibody coated SRBC; experiment: Inhibition of complement-mediated hemolysis of antibody-sensitized SRBC in vitro; assay type: cell-based, human
Method: as §1, with “sample.” for “sample. Standard curves with known quantities of TP10HD can be used to calibrate the assay so that results can be expressed as mg/ml TP10HD remaining in the plasma versus time.”
A range of dilutions of TP10HD or TP10HD glycoform spanning 7.8 to 1000 ng/ml was examined for each sample.

[7] = Isoelectric point by chromatofocusing (Mono P, pH 7.1 to 4.0); assay type: physicochemical; details: chromatofocusing
Method: Chromatofocusing is a method of separating isoforms of proteins according to their isoelectric point, pI, using an ion exchange column and a pH gradient created with amphoteric buffers of different pH. In this study, analysis of the TP10HD preparations was performed using a pH gradient of 7.1 to 4.0. The chromatographic resin was Mono P, Hr5/5 (Pharmacia Fine Chemicals, Piscataway, N.J.); the starting buffer was 0.025M Bis/Tris titrated to pH 7.1 with saturated iminodiacetic acid; the eluant was polybuffer 7-4 (Pharmacia Fine Chemicals, Piscataway, N.J.) diluted 1:10 (v/v) with water and adjusted to pH 4.0 with HCl; cleaning buffer was 2M NaCl in water. The experimental conditions were chosen to yield a linear pH gradient of 7.1 to 4.0 units.

iC3 = details: produced in presence of tunicamycin; cited from earlier work
[8] = in vivo
Method: Plasma pharmacokinetic half-lives and/or clearance rates of different glycoform preparations were determined.

sCR1/pBSCR1c: soluble CR1 construct containing LHR-A, LHR-B, LHR-C, LHR-D, SCR29, SCR30 regions up to and including the first alanine residue of the transmembrane region
activity in reversed passive Arthus reaction [1]: demonstrated in vivo activity
post-ischemic myocardial inflammation and necrosis [2]: suppressed post-ischemic myocardial inflammation and necrosis
survival rates following transplantation [3]: extended survival rates following transplantation

TP10HD-CX: TP10HD produced by cells cultured in a hollow fiber bioreactor and purified by HPLC cation exchange chromatography
α phase half-life [4]: 4.3 min
β phase half-life [4]: 167 min
α phase half-life ([5]; Study 2, iv, 1 mg/kg (Table 3 summary)): 9 to 11 min
Peak (t = O) conc ([5]; Group 1): 16.5 ± 2.4 µg/mL
Serum half-life ([5]; Group 1): 9.1 ± 1.4 min
Total Clearance ([5]; Group 1): 5.8 ± 1.2 mL/min/kg
Volume of Distribution ([5]; Group 1): 67.0 ± 9.0 mL/kg
Peak (t = O) conc ([5]; Group 2): 23.7 ± 1.7 µg/mL
Serum half-life ([5]; Group 2): 11.1 ± 1.2 min
Total Clearance ([5]; Group 2): 2.9 ± 0.1 mL/min/kg
Volume of Distribution ([5]; Group 2): 44.6 ± 3.7 mL/kg
IH50 (concentration giving 50% inhibition of hemolysis) ([6]; SRBC, human serum as complement source): 20 ± 7 ng/mL
average pI, in words [7]: higher average pI than TP10HD-CC
pI of minor isoforms ([7]; smaller quantities / minor component): ≤ 5.0

non-glycosylated form of CR1: non-glycosylated form of CR1 produced in the presence of tunicamycin
binding to iC3 (iC3): reduced binding to iC3

TP10HD-CXD: TP10HD-CX enzymatically deglycosylated with n-glycanase
α phase half-life [4]: < 1 min
β phase half-life [4]: 6.1 min
IH50 (concentration giving 50% inhibition of hemolysis) ([6]; comparison before and after deglycosylation): 40 ng/mL
plasma half-life / clearance, in words [8]: cleared rapidly
